Earlier results as cited in paper PMC5705969.

Tests used:
Kv1.3 = Kv1.3 (UniProt P22001)
Kv1.1 = Kv1.1 (UniProt Q09470)
Kv1.2 = Kv1.2 (UniProt P16389)
Chain of UniProt P16389 (P16389 whole entry): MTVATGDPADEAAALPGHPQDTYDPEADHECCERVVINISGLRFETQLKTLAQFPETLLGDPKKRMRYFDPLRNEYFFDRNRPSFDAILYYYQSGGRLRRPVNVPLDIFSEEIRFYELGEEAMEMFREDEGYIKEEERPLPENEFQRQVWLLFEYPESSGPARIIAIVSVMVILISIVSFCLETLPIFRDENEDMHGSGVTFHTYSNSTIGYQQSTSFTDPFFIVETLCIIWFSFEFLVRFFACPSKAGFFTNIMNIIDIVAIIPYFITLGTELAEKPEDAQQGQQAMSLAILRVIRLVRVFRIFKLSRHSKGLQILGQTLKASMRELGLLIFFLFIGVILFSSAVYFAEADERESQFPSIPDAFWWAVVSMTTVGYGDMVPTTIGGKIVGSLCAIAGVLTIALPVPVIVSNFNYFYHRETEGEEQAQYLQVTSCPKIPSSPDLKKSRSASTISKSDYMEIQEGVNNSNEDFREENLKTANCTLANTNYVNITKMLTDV

Chain of UniProt Q09470 (Q09470 whole entry): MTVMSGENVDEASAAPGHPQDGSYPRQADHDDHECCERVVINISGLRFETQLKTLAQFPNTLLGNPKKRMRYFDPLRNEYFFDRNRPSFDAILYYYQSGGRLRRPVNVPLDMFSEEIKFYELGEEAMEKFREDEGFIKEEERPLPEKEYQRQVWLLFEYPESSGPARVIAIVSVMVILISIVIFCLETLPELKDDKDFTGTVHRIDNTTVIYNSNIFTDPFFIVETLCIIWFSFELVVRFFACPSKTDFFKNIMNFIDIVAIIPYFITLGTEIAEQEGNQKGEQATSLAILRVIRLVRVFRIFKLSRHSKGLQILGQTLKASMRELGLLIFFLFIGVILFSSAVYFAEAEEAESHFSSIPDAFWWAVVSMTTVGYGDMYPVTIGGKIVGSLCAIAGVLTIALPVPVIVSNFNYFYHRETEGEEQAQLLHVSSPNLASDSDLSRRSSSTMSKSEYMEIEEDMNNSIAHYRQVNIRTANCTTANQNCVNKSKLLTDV
Chain of UniProt P22001 (P22001 whole entry): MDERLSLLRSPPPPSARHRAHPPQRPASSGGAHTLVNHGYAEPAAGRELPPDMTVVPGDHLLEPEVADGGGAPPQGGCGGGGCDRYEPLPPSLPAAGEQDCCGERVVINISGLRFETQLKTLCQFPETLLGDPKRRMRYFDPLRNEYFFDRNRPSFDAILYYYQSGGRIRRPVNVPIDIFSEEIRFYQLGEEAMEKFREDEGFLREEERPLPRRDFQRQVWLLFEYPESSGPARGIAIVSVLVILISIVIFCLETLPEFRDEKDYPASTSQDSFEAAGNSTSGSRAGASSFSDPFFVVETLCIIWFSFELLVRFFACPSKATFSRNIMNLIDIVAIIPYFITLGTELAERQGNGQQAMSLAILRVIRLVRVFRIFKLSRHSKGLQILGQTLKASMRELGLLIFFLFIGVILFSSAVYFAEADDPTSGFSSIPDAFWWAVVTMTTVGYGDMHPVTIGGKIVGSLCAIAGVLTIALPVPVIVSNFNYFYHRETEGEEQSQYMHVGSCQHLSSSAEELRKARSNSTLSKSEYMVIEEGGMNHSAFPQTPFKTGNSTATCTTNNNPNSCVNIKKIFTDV

## AgTx-2 (from UniProt P46111)
Kv1.3
  Kd: 0.05 nM
Kv1.1
  Kd: 0.13 nM
Kv1.2
  Kd: 3.4 nM
